Read-outs that look alike come from different tables or passages of the source. Where only a bound is given, the exact number is not on record here.

The target of assay [1] is recombinant water-soluble 'empty' HLA-DR2 (DRB1*1501) (human). The experiment in a line: incubation 1:1 with water-soluble HLA-DR, Centricon ultrafiltration, acid extraction, amino acid analysis.
Assay [2] concerns the target recombinant water-soluble 'empty' HLA-DR4 (DRB1*0401) (human). The assay is described as above.
Assay [3] addresses recombinant water-soluble 'empty' HLA-DR1 (DRB1*0101) (human). Described as above.
For assay [4] the target is unchanged. The experiment in a line: competitive binding ELISA on recombinant HLA-DR1; competitor biotinylated YEAK.
Assay [5] deals with HLA-DR2 purified from human homozygous EBV-transformed B cell lines (human). The assay can be described thus: size-exclusion column of YEAK incubated with an excess of HLA-DR purified from B cell lines.
The target in assay [6] is HLA-DR4 purified from human homozygous EBV-transformed B cell lines (human). Described as above.
In assay [7] the target is HLA-DR1 purified from human homozygous EBV-transformed B cell lines (human). The description is as above.
The target in assay [8] is recombinant water-soluble 'empty' HLA-DR4 (DRB1*0401) (human).
In assay [9] the target is T1, recombinant water-soluble 'empty' HLA-DR4 (DRB1*0401) (human).
T1 construct: extracellular domain; extracellular domain is inferred from 'water-soluble'
The assay can be described thus: competitive binding ELISA on recombinant HLA-DR4; competitor biotinylated YEAK.

Assay [10] deals with HLA-DR4 on L fibroblasts transfected with HLA-DR4 (human). The assay can be described thus: cell-based or functional assay.
Assay [11] deals with HLA-DR1 on L fibroblasts transfected with HLA-DR1 (L57.23) (human). The assay can be described thus: cell-based or functional assay.
In assay [12] the target is T2, recombinant water-soluble 'empty' HLA-DR1 (DRB1*0101) (human).
T2 construct: extracellular domain
The assay can be described thus: competitive binding ELISA; competitors biotinylated Multipin peptides.

The target of assay [13] is T1, recombinant water-soluble 'empty' …. Described as above.

Consider “heteropolymer YEAK (Copolymer 1), poly(Y,E,A,K)”, for which the percent of added YEAK in the bound fraction in assay [1] is 80%; in assay [2] it was greater than 95%; in [3] it was greater than 95%. Moreover, the affinity determined by competition in assay [4] is 8 µM; in assay [8], 2.5 µM. For the same molecule, the percent of YEAK at the lower molecular weight position of control (unbound) YEAK in assay [5], in [6] and in assay [7] was less than 10% each time. As to AAKYAEAAAAKAAAA (also called peptide 15) [synthetic 15-mer peptide SEQ ID NO: 15, AAKYAEAAAAKAAAA], the “affinity determined by competition” value in [9] was less than 1 µM. Besides, the “inhibition of the DR4 D3 T cell clone (IL-2 secretion)” value (“inhibition of the DR4 D3 T cell clone” for short) in [10] was greater than 80%. For the same molecule, in assay [11], the “inhibition of the response of 19.3 T cells (IL-2 secretion)” value was roughly 100%. As for AKKYAAAAAAKAAAA [synthetic 15-mer peptide SEQ ID NO: 8, AKKYAAAAAAKAAAA], the “inhibition of the DR4 D3 T cell clone” value in [10] was greater than 80%.

As for AEKAYAAAAAAAAAA [synthetic 15-mer peptide SEQ ID NO: 33, AEKAYAAAAAAAAAA], in assay [10], the “inhibition of the DR4 3838 T cell clone (IL-2 secretion)” value (“inhibition of the DR4 3838 T cell clone” below) was greater than 80%. In the case of AAEYKAAAAAAAAAA [synthetic 15-mer peptide SEQ ID NO: 26, AAEYKAAAAAAAAAA], the “inhibition of the response of 19.3 T cells (IL-2 secretion)” value in assay [11] is roughly 100%. For the molecule EKAYAAAAAAAAAAA [synthetic 15-mer peptide SEQ ID NO: 27, EKAYAAAAAAAAAAA], in [10], the “inhibition of the DR4 3838 T cell clone” value is greater than 80% and the “inhibition of the DR4 D3 T cell clone” value was greater than 80%. The “inhibition of the response of 19.3 T cells (IL-2 secretion)” value in assay [11] is roughly 100%. On to AEKYAAAAAAKAAAA [synthetic 15-mer peptide SEQ ID NO: 6, AEKYAAAAAAKAAAA], for which the “inhibition of the DR4 3838 T cell clone” value in [10] is greater than 80%. With EAAYAAAAAAKAAAA [synthetic 15-mer peptide SEQ ID NO: 16, EAAYAAAAAAKAAAA], in assay [10], the “inhibition of the DR4 3838 T cell clone” value is greater than 80% and the “inhibition of the DR4 D3 T cell clone” value is greater than 80%. Regarding EKKYAAAAAAKAAAA [synthetic 15-mer peptide SEQ ID NO: 17, EKKYAAAAAAKAAAA], the “inhibition of the DR4 3838 T cell clone” value in assay [10] was greater than 80%. For the molecule EAKYAAAAAAKAAAA [synthetic 15-mer peptide SEQ ID NO: 18, EAKYAAAAAAKAAAA], in assay [9], the “affinity determined by competition” value was 3 µM. In addition, in assay [10], the “inhibition of the DR4 D3 T cell clone” value was greater than 80%. With AEEYAAAAAAKAAAA [synthetic 15-mer peptide SEQ ID NO: 11, AEEYAAAAAAKAAAA], in [10], the “inhibition of the DR4 3838 T cell clone” value was greater than 80%. In the case of AAKYEAAAAAAAAAA [synthetic 15-mer peptide SEQ ID NO: 28, AAKYEAAAAAAAAAA], the “inhibition of the DR4 3838 T cell clone” value in assay [10] was greater than 80%.

For AGFKGEQGPKGEP [collagen II (CII) peptide 261-273, AGFKGEQGPKGEP], the binding result in [12] and in [13] was “binds” each time. As to AKKYAEAAAAAAAAA [synthetic 15-mer peptide SEQ ID NO: 22, AKKYAEAAAAAAAAA], the “inhibition of the DR4 3838 T cell clone” value in assay [10] was greater than 80%. With AKEYAAAAAAAAAAA [synthetic 15-mer peptide SEQ ID NO: 20, AKEYAAAAAAAAAAA], in assay [11], the “inhibition of the response of 19.3 T cells (IL-2 secretion)” value was roughly 100%.

Consider AEAYKAAAAAAAAAA [synthetic 15-mer peptide SEQ ID NO: 23, AEAYKAAAAAAAAAA], for which the “inhibition of the DR4 3838 T cell clone” value in [10] was greater than 80%.

These data come from US20040006022A1 (Harvard, published 2004).
